# According to the RNAGym collection of RNA variant scans (doi:10.7554/elife.80360):
# B1: CPEB3 Ribozyme (parent)
# chain: GGGGGCCACAGCAGAAGCGUUCACGUCGCGGCCCCUGUCAGAUUCUGGUGAAUCUGCGAAUUCUGCUGU
# Variants of: B1
# Experiment: self-cleavage, relative activity (ratio to wild type); higher = more cleavage; co-transcriptional
row,Variant,self-cleavage
1,GGGGGCCACAGCAGAAGCGUUCACGUCGCGGCCCCUGUCAGAUUCUGGUGAAUCCUCGAAUUCUGCUGU,0.686
2,GGGGGCCACAGCAGAAGCGUUCACGUCGCGGCCCCUGUCAGAUUCUGGUGAAUCAACGAAUUCUGCUGU,0.976
3,GGGGGCCACAGCAGAAGCGUUCACGUCGCGGCCCCUGUCAGAUUCUGGUGAAUCAUCGAAUUCUGCUGU,0.694
4,GGGGGCCACAGCAGAAGCGUUCACGUCGCGGCCCCUGUCAGAUUCUGGUGAAUCACCGAAUUCUGCUGU,0.636
5,GGGGGCCACAGCAGAAGCGUUCACGUCGCGGCCCCUGUCAGAUUCUGGUGAAUCCGAGAAUUCUGCUGU,0.367
6,GGGGGCCACAGCAGAAGCGUUCACGUCGCGGCCCCUGUCAGAUUCUGGUGAAUCAGCGAAUUAUGCUGU,0.464
7,GGGGGCCACAGCAGAAGCGUUCACGUCGCGGCCCCUGUCAGAUUCUGGUGAAUCAGCGAAUUGUGCUGU,0.438
8,GGGGGCCACAGCAGAAGCGUUCACGUCGCGGCCCCUGUCAGAUUCUGGUGAAUCAGCGAAGUCUGCUGU,0.6
9,GGGGGCCACAGCAGAAGCGUUCACGUCGCGGCCCCUGUCAGAUUCUGGUGAAUCAGCGAAAUCUGCUGU,0.635
10,GGGGGCCACAGCAGAAGCGUUCACGUCGCGGCCCCUGUCAGAUUCUGGUGAAUUUGCGAAUUCUGCCGU,1.01
11,GGGGGCCACAGCAGAAGCGUUCACGUCGCGGCCCCUGUCAGAUUCUGGUGAAUUUGCGAAUUCUGCGGU,0.987
12,GGGGGCCACAGCAGAAGCGUUCACGUCGCGGCCCCUGUCAGAUUCUGGUGAAUCCGCGAAUUCUGCUUU,0.908
13,GGGGGCCACAGCAGAAGCGUUCACGUCGCGGCCCCUGUCAGAUUCUGGUGAAUCCGCGAAUUCUGCUCU,0.977
14,GGGGGCCACAGCAGAAGCGUUCACGUCGCGGCCCCUGUCAGAUUCUGGUGAAUCCGCGAAUUCUCCUGU,0.416
15,GGGGGCCACAGCAGAAGCGUUCACGUCGCGGCCCCUGUCAGAUUCUGGUGAAUCGGCGAAUUCUGCUCU,0.972
16,GGGGGCCACAGCAGAAGCGUUCACGUCGCGGCCCCUGUCAGAUUCUGGUGAAUCGGCGAAUUCUGCUAU,0.951
17,GGGGGCCACAGCAGAAGCGUUCACGUCGCGGCCCCUGUCAGAUUCUGGUGAAUCGGCGAACUCUGCUGU,0.293
18,GGGGGCCACAGCAGAAGCGUUCACGUCGCGGCCCCUGUCAGAUUCUGGUGAAUCGGCGAAGUCUGCUGU,0.547
19,GGGGGCCACAGCAGAAGCGUUCACGUCGCGGCCCCUGUCAGAUUCUGGUGAAUCAGCGAGUUCUGCUGU,0.615
20,GGGGGCCACAGCAGAAGCGUUCACGUCGCGGCCCCUGUCAGAUUCUGGUGAAUCAGCGAUUUCUGCUGU,0.298
21,GGGGGCCACAGCAGAAGCGUUCACGUCGCGGCCCCUGUCAGAUUCUGGUGAAUCCGCGUAUUCUGCUGU,0.545
22,GGGGGCCACAGCAGAAGCGUUCACGUCGCGGCCCCUGUCAGAUUCUGGUGAAUCAGCGAAUUCCGCUGU,0.479
23,GGGGGCCACAGCAGAAGCGUUCACGUCGCGGCCCCUGUCAGAUUCUGGUGAAUCAGCGAAUUCGGCUGU,0.613
24,GGGGGCCACAGCAGAAGCGUUCACGUCGCGGCCCCUGUCAGAUUCUGGUGAAUCGGCGAAUUCUGUUGU,0.681
25,GGGGGCCACAGCAGAAGCGUUCACGUCGCGGCCCCUGUCAGAUUCUGGUGAAUCGGCGAAUUCUGAUGU,0.437
26,GGGGGCCACAGCAGAAGCGUUCACGUCGCGGCCCCUGUCAGAUUCUGGUGAAUCCGCGAAUUCUGCUGC,1.06

row,Variant,self-cleavage
1,GGGGGCCACAGCAGAAGCGUUCACGUCGCGGCCCCUGUCAGAUUCUGGUGAAUCCGCGAAUUCUGCUGA,0.971
2,GGGGGCCACAGCAGAAGCGUUCACGUCGCGGCCCCUGUCAGAUUCUGGUGAAUCCGCGAAUUCUGCUGG,1.01
3,GGGGGCCACAGCAGAAGCGUUCACGUCGCGGCCCCUGUCAGAUUCUGGUGAAUUUGCGAAUUCUGCUGG,1.06
4,GGGGGCCACAGCAGAAGCGUUCACGUCGCGGCCCCUGUCAGAUUCUGGUGAAUUUGCGAAUUCUGCUGC,1.07
5,GGGGGCCACAGCAGAAGCGUUCACGUCGCGGCCCCUGUCAGAUUCUGGUGAAUCCGCGAAUUCUGCCGU,0.912
6,GGGGGCCACAGCAGAAGCGUUCACGUCGCGGCCCCUGUCAGAUUCUGGUGAAUCCGCGAAUUAUGCUGU,0.464
7,GGGGGCCACAGCAGAAGCGUUCACGUCGCGGCCCCUGUCAGAUUCUGGUGAAUCCGCGAAUUUUGCUGU,0.85
8,GGGGGCCACAGCAGAAGCGUUCACGUCGCGGCCCCUGUCAGAUUCUGGUGAAUCCGCGAAUUGUGCUGU,0.532
9,GGGGGCCACAGCAGAAGCGUUCACGUCGCGGCCCCUGUCAGAUUCUGGUGAAUCGGGGAAUUCUGCUGU,0.39
10,GGGGGCCACAGCAGAAGCGUUCACGUCGCGGCCCCUGUCAGAUUCUGGUGAAUCGGUGAAUUCUGCUGU,0.378
11,GGGGGCCACAGCAGAAGCGUUCACGUCGCGGCCCCUGUCAGAUUCUGGUGAAUCCGCGAAUUCUGAUGU,0.342
12,GGGGGCCACAGCAGAAGCGUUCACGUCGCGGCCCCUGUCAGAUUCUGGUGAAUCCGCGAAUUCUGGUGU,0.437
13,GGGGGCCACAGCAGAAGCGUUCACGUCGCGGCCCCUGUCAGAUUCUGGUGAAUCCGCGAAUUCUGUUGU,0.816
14,GGGGGCCACAGCAGAAGCGUUCACGUCGCGGCCCCUGUCAGAUUCUGGUGAAUCCGCGAAUUCCGCUGU,0.662
15,GGGGGCCACAGCAGAAGCGUUCACGUCGCGGCCCCUGUCAGAUUCUGGUGAAUCCGCGAAUUCGGCUGU,0.531
16,GGGGGCCACAGCAGAAGCGUUCACGUCGCGGCCCCUGUCAGAUUCUGGUGAAUCGGCGAAUUCCGCUGU,0.411
17,GGGGGCCACAGCAGAAGCGUUCACGUCGCGGCCCCUGUCAGAUUCUGGUGAAUCGGCGAAUUCAGCUGU,0.371
18,GGGGGCCACAGCAGAAGCGUUCACGUCGCGGCCCCUGUCAGAUUCUGGUGAAUCAGCGCAUUCUGCUGU,0.394
19,GGGGGCCACAGCAGAAGCGUUCACGUCGCGGCCCCUGUCAGAUUCUGGUGAAUCAGCGUAUUCUGCUGU,0.456
20,GGGGGCCACAGCAGAAGCGUUCACGUCGCGGCCCCUGUCAGAUUCUGGUGAAUCAGCGGAUUCUGCUGU,0.981
21,GGGGGCCACAGCAGAAGCGUUCACGUCGCGGCCCCUGUCAGAUUCUGGUGAAUCCGCGAAAUCUGCUGU,0.604
22,GGGGGCCACAGCAGAAGCGUUCACGUCGCGGCCCCUGUCAGAUUCUGGUGAAUCCGCGAACUCUGCUGU,0.407
23,GGGGGCCACAGCAGAAGCGUUCACGUCGCGGCCCCUGUCAGAUUCUGGUGAAUCGGCGACUUCUGCUGU,0.296
24,GGGGGCCACAGCAGAAGCGUUCACGUCGCGGCCCCUGUCAGAUUCUGGUGAAUCGGCGAAUUAUGCUGU,0.345
25,GGGGGCCACAGCAGAAGCGUUCACGUCGCGGCCCCUGUCAGAUUCUGGUGAAUCGGCGAAUUGUGCUGU,0.399
26,GGGGGCCACAGCAGAAGCGUUCACGUCGCGGCCCCUGUCAGAUUCUGGUGAAUCGACGAAUUCUGCUGU,0.963

row,Variant,self-cleavage
1,GGGGGCCACAGCAGAAGCGUUCACGUCGCGGCCCCUGUCAGAUUCUGGUGAAUCAGCGAAUUCUACUGU,0.581
2,GGGGGCCACAGCAGAAGCGUUCACGUCGCGGCCCCUGUCAGAUUCUGGUGAAUCCGCAAAUUCUGCUGU,0.91
3,GGGGGCCACAGCAGAAGCGUUCACGUCGCGGCCCCUGUCAGAUUCUGGUGAAUCCGCCAAUUCUGCUGU,0.918
4,GGGGGCCACAGCAGAAGCGUUCACGUCGCGGCCCCUGUCAGAUUCUGGUGAAUCCGCUAAUUCUGCUGU,0.968
5,GGGGGCCACAGCAGAAGCGUUCACGUCGCGGCCCCUGUCAGAUUCUGGUGAAUCAGCGAAUUCUGUUGU,0.944
6,GGGGGCCACAGCAGAAGCGUUCACGUCGCGGCCCCUGUCAGAUUCUGGUGAAUCAGCGAAUUCUGGUGU,0.68
7,GGGGGCCACAGCAGAAGCGUUCACGUCGCGGCCCCUGUCAGAUUCUGGUGAAUCAGCGAAUUCUGAUGU,0.561
8,GGGGGCCACAGCAGAAGCGUUCACGUCGCGGCCCCUGUCAGAUUCUGGUGAAUCAGCGAAUGCUGCUGU,0.531
9,GGGGGCCACAGCAGAAGCGUUCACGUCGCGGCCCCUGUCAGAUUCUGGUGAAUCAGCGAAUUCUGCUUU,0.992
10,GGGGGCCACAGCAGAAGCGUUCACGUCGCGGCCCCUGUCAGAUUCUGGUGAAUCAGCGAAUUCUGCUAU,0.942
11,GGGGGCCACAGCAGAAGCGUUCACGUCGCGGCCCCUGUCAGAUUCUGGUGAAUCGGCGAAUACUGCUGU,0.427
12,GGGGGCCACAGCAGAAGCGUUCACGUCGCGGCCCCUGUCAGAUUCUGGUGAAUCGGCGAAUCCUGCUGU,0.517
13,GGGGGCCACAGCAGAAGCGUUCACGUCGCGGCCCCUGUCAGAUUCUGGUGAAUCCGCGAAUGCUGCUGU,0.559
14,GGGGGCCACAGCAGAAGCGUUCACGUCGCGGCCCCUGUCAGAUUCUGGUGAAUCAGCCAAUUCUGCUGU,0.993
15,GGGGGCCACAGCAGAAGCGUUCACGUCGCGGCCCCUGUCAGAUUCUGGUGAAUCAGCUAAUUCUGCUGU,0.988
16,GGGGGCCACAGCAGAAGCGUUCACGUCGCGGCCCCUGUCAGAUUCUGGUGAAUCGGCGAAUUCUACUGU,0.408
17,GGGGGCCACAGCAGAAGCGUUCACGUCGCGGCCCCUGUCAGAUUCUGGUGAAUCGGCGAAUUCUCCUGU,0.417
18,GGGGGCCACAGCAGAAGCGUUCACGUCGCGGCCCCUGUCAGAUUCUGGUGAAUCGGCGAAUUCUUCUGU,0.307
19,GGGGGCCACAGCAGAAGCGUUCACGUCGCGGCCCCUGUCAGAUUCUGGUGAAUCAGCGAAUUCUGCUGA,1.02
20,GGGGGCCACAGCAGAAGCGUUCACGUCGCGGCCCCUGUCAGAUUCUGGUGAAUCAGCGAAUUCUGCUGC,1.06
21,GGGGGCCACAGCAGAAGCGUUCACGUCGCGGCCCCUGUCAGAUUCUGGUGAAUCAGCGAAUUCUGCCGU,0.906
22,GGGGGCCACAGCAGAAGCGUUCACGUCGCGGCCCCUGUCAGAUUCUGGUGAAUCCGCGACUUCUGCUGU,0.306
23,GGGGGCCACAGCAGAAGCGUUCACGUCGCGGCCCCUGUCAGAUUCUGGUGAAUCGGCAAAUUCUGCUGU,0.644
24,GGGGGCCACAGCAGAAGCGUUCACGUCGCGGCCCCUGUCAGAUUCUGGUGAAUCGGCCAAUUCUGCUGU,0.964
25,GGGGGCCACAGCAGAAGCGUUCACGUCGCGGCCCCUGUCAGAUUCUGGUGAAUCGGCGGAUUCUGCUGU,0.81
26,GGGGGCCACAGCAGAAGCGUUCACGUCGCGGCCCCUGUCAGAUUCUGGUGAAUCGGCGCAUUCUGCUGU,0.364
